This series in a line: amyloid nucleation score (Sup35N fusion, yeast selection) (log enrichment); library NNK3; higher = more nucleation; inactive = no reads after selection. Put shortly:
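Sup35N was fused to peptides of 20 random codons and expressed in psi-negative yeast, which were induced with 100 μM copper sulfate for 24 hours and then grown on medium lacking adenine and uracil for 7 days at 30°C. Plasmid inserts from input and output were sequenced on Illumina. The nucleation score is the DiMSum log enrichment of output over input reads, centred on the mode score of non-aggregating sequences. Sequences with under 100 input reads were left out, and random libraries had three technical output replicates.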

± gives the uncertainty stated by the source.

Regarding LIDWTDNRYPYRHHHFCPNA, the amyloid nucleation score entry is “inactive”.

On to WCAVMPFRSVTSNVIFDLSV, for which the amyloid nucleation score entry is “inactive”.

For the substance IMVCKWTSPTSTMPHDDLGC, the amyloid nucleation score entry was “inactive”.

For QNMCAARPS, the amyloid nucleation score entry was “inactive”.

DSSLKMGCKGWNVYVGATLV registered an amyloid nucleation score of 0.866 ± 0.16.

In the case of KTSINGKADFG, the amyloid nucleation score result was “inactive”.

Turning to DVAYFNAFY, the amyloid nucleation score result is “inactive”.

As to SLWSVEDSGYKC, the amyloid nucleation score result was “inactive”.

As to FCFNGRCIFFYSSSLYVFGF, the amyloid nucleation score entry was “inactive”.

As to WLEDTSSTDF, the amyloid nucleation score is 0.348 ± 0.22.

On to CSQPCRHFYKVKGGYTFKCL, for which the amyloid nucleation score result was “inactive”.

With KGTSR, the amyloid nucleation score result was “inactive”.

For the substance DQMIEDRNWNGVNDYSYNAC, the amyloid nucleation score entry was “inactive”.

Take FLVRRGCP: the amyloid nucleation score result is “inactive”.

Consider KRYYYCHGSSL, for which the amyloid nucleation score entry was “inactive”.

In the case of TLSLVQQSR, the amyloid nucleation score result was “inactive”.

For ALEAFKRFNLYELGCKGIKV, the amyloid nucleation score entry was “inactive”.

Regarding KCMGVSWLSNIVRSIRVIIS, the amyloid nucleation score result was “inactive”.

As for DSFILLDTSTHTNTTAYGKC, the amyloid nucleation score result was “inactive”.

As for RAGYVWTAVLRPHSNVAWFV, the amyloid nucleation score result was “inactive”.

With SKSKYHFYHHGEAWSTLVVV, the amyloid nucleation score entry is “inactive”.

MYDLDHSFCTLLTEVRALMK displayed an amyloid nucleation score of -0.396 ± 1.4.

Consider VLNDFMCDFGSWPRVIVIRT, for which the amyloid nucleation score entry is “inactive”.

Turning to YKRFMIPIKYCGGQRNTDVR, the amyloid nucleation score result is “inactive”.

Consider RQYWCFYQSWNSLG, for which the amyloid nucleation score result is “inactive”.

In the case of FDFWEDRVCPIYNCLGCGKL, the amyloid nucleation score entry was “inactive”.

With FLTDRPYRGCG, the amyloid nucleation score entry was “inactive”.

Take IPALIVISQYRGANRFDCAF: the amyloid nucleation score result was “inactive”.

PGKGKELSRASGSRATV: the amyloid nucleation score entry was “inactive”.

On to GCKRVVTTV, for which the amyloid nucleation score is -0.606 ± 0.93.

Regarding FLIPYKRQIAQRRYVSLE, the amyloid nucleation score result was “inactive”.

For FDRNSPTVLFRLRWEYF, the amyloid nucleation score result is “inactive”.

As for CISSCYWWFGFYVLKWE, the amyloid nucleation score entry is “inactive”.

RDNWSVNLDTKHDLSIAGKL: the amyloid nucleation score entry is “inactive”.

Take MSCTDRYEIL: the amyloid nucleation score entry is “inactive”.

With VWLRGFQLGMDDFLWRVSGC, the amyloid nucleation score result is “inactive”.

In the case of RSQSVQKIEATLSLLIGAPK, the amyloid nucleation score entry was “inactive”.

Turning to LSFCVVSTGRCAAMEN, the amyloid nucleation score entry was “inactive”.

The substance FLTRFRDPT registered an amyloid nucleation score of -0.589 ± 0.9.

For the substance LGFLNWSRQGGV, the amyloid nucleation score was found to be 0.947 ± 0.25.

NFVRGTGFVGRLESLNWKV: the amyloid nucleation score entry is “inactive”.

On to MIRRKRNAYMR, for which the amyloid nucleation score result is “inactive”.

On to CQISWL, for which the amyloid nucleation score result is “inactive”.

TAKTRC: the amyloid nucleation score was -0.272 ± 0.96.

With WRVSNKIIPIIRWQWMDPCL, the amyloid nucleation score entry is “inactive”.

Consider LDIFKISDTWMFDGQLTHLL, for which the amyloid nucleation score entry was “inactive”.

Regarding TFVKSVLSYVLGLELSLRGL, the amyloid nucleation score result is “inactive”.

In the case of FTNNCYHLAMY, the amyloid nucleation score is -0.456 ± 0.74.

In the case of RDRLVWDRCRTVAPSTGVVR, the amyloid nucleation score result was “inactive”.

With KSYLFWSLI, the amyloid nucleation score result was “inactive”.

As to VYWRTVFNLRLVLKSYGAMR, the amyloid nucleation score entry is “inactive”.

GYIRPALMARGYIVVNSANI: the amyloid nucleation score entry was “inactive”.

With RYMHGYCILET, the amyloid nucleation score result was “inactive”.

AIPSMSSRTLNQVSPIDPDL gave an amyloid nucleation score of 0.706 ± 0.17.

For the substance VQVMETEMRSVVA, the amyloid nucleation score result was “inactive”.

In turn, TWSSLFMIFQYTCAGCWDFK had an amyloid nucleation score of 1.52 ± 0.068.

With NMFRRPTVCTVQEQVTEMRV, the amyloid nucleation score result was “inactive”.

As for DFGSDSVDRIPRTGADNSI, the amyloid nucleation score entry was “inactive”.

For DLGMLERC, the amyloid nucleation score entry was “inactive”.

YPLYASTS: the amyloid nucleation score was 1.07 ± 0.16.

For ALFLACNH, the amyloid nucleation score turned out to be 1.59 ± 0.095.

In turn, CRRFELS yielded an amyloid nucleation score of -1.04 ± 1.9.

With VLSVSLNACTIGWST, the amyloid nucleation score worked out at 1.34 ± 0.1.

In the case of EWTVNMNSYLLVSVAYGCGS, the amyloid nucleation score result was “inactive”.

Consider TNLWFKNLSMFMGIVSLART, for which the amyloid nucleation score result is “inactive”.

Substance WACCGICSCL gave an amyloid nucleation score of 2.02 ± 0.094.

For the substance WRPFWYIGFHVNVTRG, the amyloid nucleation score result was “inactive”.

In the case of IIKWSCYNLSLYHTKCKDAE, the amyloid nucleation score entry is “inactive”.

In turn, RLRQTATCIRFVFAGNVLAN registered an amyloid nucleation score of 0.018 ± 1.2.

For the substance FVVSLQYMCQSRYISPCTPI, the amyloid nucleation score entry is “inactive”.

For GSLPFLSYLGRVKCGERRSS, the amyloid nucleation score entry is “inactive”.

PVDKCRCGGWNLSHLHKLSS registered an amyloid nucleation score of -0.615 ± 1.7.

For KAYISVIGKLDYQNFSMKRF, the amyloid nucleation score is 2.41 ± 0.054.

On to CQVSCFNLVSIKSWDKIAGS, for which the amyloid nucleation score worked out at 2.52 ± 0.06.

As to HKYSEGSLNTFRRLRRSRFS, the amyloid nucleation score result was “inactive”.

For the substance KSVQKMAWTVRCELYLHTG, the amyloid nucleation score result was “inactive”.

With SRLNWSRRWSLVSQNARRTS, the amyloid nucleation score result was “inactive”.

SIILGCCLWLHLMH came in with an amyloid nucleation score of 2.08 ± 0.059.

For IFVNWMVISVGLARFDVINA, the amyloid nucleation score is -0.579 ± 0.69.

TLTWHNVWGCICGKFLTV: the amyloid nucleation score result was “inactive”.

Consider LLFQMVHLTCVMYLLVSSTL, for which the amyloid nucleation score result is “inactive”.

MTVSVITAMGFTIGFFADNQ yielded an amyloid nucleation score of 0.494 ± 0.26.

LVLRGKRSDV: the amyloid nucleation score result is “inactive”.

With TRCYRASE, the amyloid nucleation score result is “inactive”.

With DDCFIARAFLSLGLPELYLG, the amyloid nucleation score result is “inactive”.

Consider VFKSSGPAVTSYWY, for which the amyloid nucleation score result is “inactive”.

As to VRSQGLHRRVFFIATGIKLG, the amyloid nucleation score entry was “inactive”.

Turning to VVRYPSMKE, the amyloid nucleation score result is “inactive”.

Turning to SARSVIYYVPGLSTWSVTS, the amyloid nucleation score result is “inactive”.

With DNLPTRRYLNKNDWRGASYL, the amyloid nucleation score entry was “inactive”.

Turning to ILVSFVVGTNLLWGDASVRW, the amyloid nucleation score was 0.236 ± 0.48.

Take GIVYKRVYRMWVHVAEAESR: the amyloid nucleation score entry was “inactive”.

Regarding ELLCLIYMDLHVCWQGLTMQ, the amyloid nucleation score entry is “inactive”.

Consider LLFAYLMRMRISVHIWVRGT, for which the amyloid nucleation score result is “inactive”.

Take RGSDIMAFAVDYTDNKSECS: the amyloid nucleation score result was “inactive”.

As to AVTDLDIFICSG, the amyloid nucleation score entry is “inactive”.

With HYYVTVTHGS, the amyloid nucleation score entry is “inactive”.

Consider IWFKWNRCNVRGMTWTDFYA, for which the amyloid nucleation score came to 1.17 ± 0.082.

On to MHNKVGPYTD, for which the amyloid nucleation score result is “inactive”.

In turn, MDNLCGVVFCGSWSVVYSAR had an amyloid nucleation score of 3.35 ± 0.06.

As to IPFGFSI, the amyloid nucleation score result was “inactive”.

On to LSCVLTVGTKTLFRAQMTQV, for which the amyloid nucleation score result was “inactive”.

With VNLGDGHVDDSIASQDMWHK, the amyloid nucleation score result was “inactive”.

For EARLTSLCKKQYEF, the amyloid nucleation score entry is “inactive”.

Consider FLLSVNQASNYGTWILWFYR, for which the amyloid nucleation score result is “inactive”.

In the case of DKKVSISRVSR, the amyloid nucleation score entry is “inactive”.

YFILIYWSQCSMWYYVFKYG: the amyloid nucleation score entry is “inactive”.

In the case of VGNLGS, the amyloid nucleation score result was “inactive”.

YLCYMEYVH: the amyloid nucleation score entry is “inactive”.

TAFTYYASVSFVSRL: the amyloid nucleation score was found to be 1.38 ± 0.093.

For the substance LVCSLLQASNWCVISSS, the amyloid nucleation score worked out at 0.753 ± 0.11.

Take NSLDSRMYGI: the amyloid nucleation score result is “inactive”.

With LKWCFFCCN, the amyloid nucleation score is 2.54 ± 0.065.

Take LTDRDDDSTHVRSPYSRLLW: the amyloid nucleation score entry was “inactive”.

For the substance TVYLACIC, the amyloid nucleation score entry is “inactive”.

Consider MRRTSCTVYTGKIRRIMYVV, for which the amyloid nucleation score result was “inactive”.

In the case of DYKRSMGFGWLTFVPYLAGN, the amyloid nucleation score result is “inactive”.

For YTLKCIQVVWLSMPVSVSNV, the amyloid nucleation score result was “inactive”.

In turn, YASVRVQFCCIFKSADRASP came in with an amyloid nucleation score of 1.9 ± 0.088.

Substance VKVFFPIVRCDTYHIYKQWG had an amyloid nucleation score of 2.51 ± 0.053.

On to LHGHTWSWSLDWLSYMTAVQ, for which the amyloid nucleation score result was “inactive”.

Regarding NRKRFGEMNGRNYSVQGGRW, the amyloid nucleation score result was “inactive”.

As for APKVQGDCRNTGCAPMVHKK, the amyloid nucleation score entry was “inactive”.

With LGSDTPLKCVLSTMRMLRTG, the amyloid nucleation score entry was “inactive”.

In turn, MLYNCRQGCKRSW showed an amyloid nucleation score of 0.248 ± 0.44.

In turn, SALFMLPYALTRMVYANLLQ registered an amyloid nucleation score of -0.004 ± 0.75.

In the case of CNHLSSTCFT, the amyloid nucleation score result was “inactive”.

Consider MLIQPWSSSRNYVPPAEYW, for which the amyloid nucleation score entry is “inactive”.

As for ESYLQRPRTSTRMFVMRLKV, the amyloid nucleation score entry was “inactive”.

In the case of YFLSDLQRKGSGLETVRVCR, the amyloid nucleation score result was “inactive”.

Regarding VLLYDECMMFVNSLMFTNSE, the amyloid nucleation score was -0.501 ± 0.66.

As to GNFAM, the amyloid nucleation score entry was “inactive”.

The substance TKAAMPRNNYLFILY came in with an amyloid nucleation score of -0.278 ± 0.71.

Source of the values: the supplement of paper PMC12042874.
